The RNAGym collection of RNA variant scans (doi:10.1073/pnas.2313332121)

B1: TPR t1 (parent)
chain: GACCAAUCUGCCCUCAGAGCUCGAGAACAUCUUCGGAUGCAGAGGAGGCAGGCUUCGGUGGCGCGAUAGCGCCAACGUCCUCAACCUCCAAUGCAUCCCACCACAUGAUGAUGCCUGAAGAGCCUUGGUUUUUUG

Variants of: B1
Assay: polymerase ribozyme fitness, log enrichment relative to wild type (log ratio); higher = more active; in vitro selection for triplet polymerase activity
Summary of the method: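 Libraries of mutants in each subunit of a heterodimeric triplet polymerase ribozyme were generated by PCR and transcribed. In triplicate, each went through one in vitro selection round: annealing with biotinylated primer, partner subunit and triplets; frozen incubation at −7 °C; gel excision of extended constructs; streptavidin-bead capture; RT-PCR. Fitness, taken from Illumina sequencing of input and output libraries, is the logarithm of a genotype's enrichment over wild-type enrichment, averaged across replicates with inverse-variance weights. The logarithm is base 2, and genotypes needed ≥10 input reads and ≥1 read per output to be kept.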

Compared with C72G A121G, G71A C115U is lower in “polymerase ribozyme fitness (log ratio)” value: 0.881 for the first, -1.95 for the second.

First: G71A C115A
Second: G71U U112G
The “polymerase ribozyme fitness (log ratio)” value of the first is lower: -2.31 for the first, -0.608 for the second.

First: G71U A105U
Second: C72G U78C C79A G128C
The “polymerase ribozyme fitness (log ratio)” value of the first is higher: -2.22 for the first, -4.09 for the second.

Compared with C72G C73A A121G, G71A A90C G120A is lower in “polymerase ribozyme fitness (log ratio)” value: 0.168 for the first, -1.97 for the second.

Compared with C72A C123A U126G, G71A U78C C114G is lower in “polymerase ribozyme fitness (log ratio)” value: -0.782 for the first, -5.04 for the second.

First: G71C C123G
Second: C72G U78A G127U U129C
The “polymerase ribozyme fitness (log ratio)” value of the first is higher: 0.627 for the first, -2.25 for the second.

First: C70U U126G
Second: C70U U126C
The “polymerase ribozyme fitness (log ratio)” value of the first is lower: -3.3 for the first, -0.89 for the second.

Compared with G71C C114A G127U, C72A U87G is higher in “polymerase ribozyme fitness (log ratio)” value: -5.17 for the first, 0.194 for the second.

Compared with C72G C85U C102U C104A A105G, C70U U133G is higher in “polymerase ribozyme fitness (log ratio)” value: -7.34 for the first, -1.12 for the second.

Compared with G71C U112G, G71A U81A A84U is lower in “polymerase ribozyme fitness (log ratio)” value: -1.66 for the first, -2.93 for the second.

Compared with C72A C76A, C72G G120C is higher in “polymerase ribozyme fitness (log ratio)” value: -1.85 for the first, 0.587 for the second.

C72G G120A and C72G G120U are within 0.2 log units of each other in “polymerase ribozyme fitness (log ratio)” value: 0.223 for the first, 0.278 for the second.

Compared with C72A C88U G93C, C72A C102A is lower in “polymerase ribozyme fitness (log ratio)” value: -0.854 for the first, -1.51 for the second.

Going from C72G A90C C101U to G71U G107A, the “polymerase ribozyme fitness (log ratio)” value falls from -1.47 to -4.04.

First: C72G C88U C123A
Second: C72A A100U U106C
The “polymerase ribozyme fitness (log ratio)” value of the first is higher: 0.243 for the first, -0.411 for the second.

Going from G71A U81G A83U to G71U C99U C115A, the “polymerase ribozyme fitness (log ratio)” value rises from -6.59 to -2.82.

Going from C72A U129C to C72A A105U G122A, the “polymerase ribozyme fitness (log ratio)” value falls from -0.6 to -2.49.

G71A C85A and G71A C85G are within 0.2 log units of each other in “polymerase ribozyme fitness (log ratio)” value: -2.44 for the first, -2.38 for the second.

Going from C72A C79G to G71A G93C A95C, the “polymerase ribozyme fitness (log ratio)” value falls from -1.13 to -2.61.

Compared with C72G C86G U109A C114A G120C, C72A C104G is lower in “polymerase ribozyme fitness (log ratio)” value: -5.75 for the first, -7.39 for the second.

Compared with C72G C73U G93C A111C G122U G135A, G71A C123G is higher in “polymerase ribozyme fitness (log ratio)” value: -4.92 for the first, 1.1 for the second.

Compared with C72A G117A U126A, C72A C102U C123A C124G is higher in “polymerase ribozyme fitness (log ratio)” value: -1.78 for the first, 0.156 for the second.

First: G71C G93A C102A
Second: G71A C114A
The “polymerase ribozyme fitness (log ratio)” value of the first is lower: -5.09 for the first, -1.41 for the second.

Going from C72A U109A to G71U C85G C88G C115A, the “polymerase ribozyme fitness (log ratio)” value falls from -4.06 to -5.75.

Going from C72A U96G U132A to G71C G135C, the “polymerase ribozyme fitness (log ratio)” value falls from -0.0408 to -1.39.

Going from G71C U87A to G71U C104A U126C, the “polymerase ribozyme fitness (log ratio)” value falls from -2.35 to -3.21.

Going from G71U G77C C89U G128C to G71U C86U C102U, the “polymerase ribozyme fitness (log ratio)” value rises from -4.14 to -2.63.

Going from G71C A121C C123U C124U to C72A G113C, the “polymerase ribozyme fitness (log ratio)” value rises from -2.8 to -2.03.

First: G71C C85A G117A
Second: C72G G135A
The “polymerase ribozyme fitness (log ratio)” value of the first is lower: -2.67 for the first, -0.341 for the second.

Compared with C72A C85U C104U, G71C C99U is lower in “polymerase ribozyme fitness (log ratio)” value: 0.563 for the first, -4.28 for the second.

First: G71C U81A U109A
Second: C72G A84C
The “polymerase ribozyme fitness (log ratio)” value of the first is lower: -6.73 for the first, -0.56 for the second.

Compared with G71A C73U C101A U132A, C70U U96C C99U C102U is lower in “polymerase ribozyme fitness (log ratio)” value: -2.2 for the first, -6.59 for the second.

Going from G71A U81C C88A C123G G135U to G71C C114G, the “polymerase ribozyme fitness (log ratio)” value falls from -0.881 to -4.37.

Going from G71C A100C to G71C C88U A90C C115G, the “polymerase ribozyme fitness (log ratio)” value falls from -2.78 to -4.94.

Going from C70U U92C C97U C123U to C72G A111U, the “polymerase ribozyme fitness (log ratio)” value falls from -0.926 to -3.82.

First: C72G A111G
Second: C72A C115A G135A
The “polymerase ribozyme fitness (log ratio)” value of the first is higher: 0.355 for the first, -0.346 for the second.

First: G71A G107A C114U
Second: C72A U78A G110C
The “polymerase ribozyme fitness (log ratio)” value of the first is higher: -4.4 for the first, -4.71 for the second.

Going from C72A C102A U129A to C72G C86U U130C, the “polymerase ribozyme fitness (log ratio)” value rises from -2.3 to -0.236.

First: C72A C80A A90G U125A
Second: C72A G93U G110U
The “polymerase ribozyme fitness (log ratio)” value of the first is lower: -3.65 for the first, -2.37 for the second.

Compared with G71A A75G C104U, G71U G77C U126C is lower in “polymerase ribozyme fitness (log ratio)” value: -0.612 for the first, -2.3 for the second.

First: C70U U130G
Second: C70U U81C C99A U112A U125C
The “polymerase ribozyme fitness (log ratio)” value of the first is higher: -1.24 for the first, -6.54 for the second.

In the case of C72A C89U U92G, the “polymerase ribozyme fitness (log ratio)” value is reported as -1.39.
